US12247058 (Bristol-Myers Squibb, dated 2025)
Non-standard residues stand in square brackets, D forms with d. Phe(4-Ac) = CC(=O)c1ccc(C[C@H](N)C(=O)O)cc1

T1: human β-klotho with a C-terminal FLAG tag, stably expressed in a clonal HEK-293 cell line (human, UniProt Q86Z14 1-1044)
T1 sequence: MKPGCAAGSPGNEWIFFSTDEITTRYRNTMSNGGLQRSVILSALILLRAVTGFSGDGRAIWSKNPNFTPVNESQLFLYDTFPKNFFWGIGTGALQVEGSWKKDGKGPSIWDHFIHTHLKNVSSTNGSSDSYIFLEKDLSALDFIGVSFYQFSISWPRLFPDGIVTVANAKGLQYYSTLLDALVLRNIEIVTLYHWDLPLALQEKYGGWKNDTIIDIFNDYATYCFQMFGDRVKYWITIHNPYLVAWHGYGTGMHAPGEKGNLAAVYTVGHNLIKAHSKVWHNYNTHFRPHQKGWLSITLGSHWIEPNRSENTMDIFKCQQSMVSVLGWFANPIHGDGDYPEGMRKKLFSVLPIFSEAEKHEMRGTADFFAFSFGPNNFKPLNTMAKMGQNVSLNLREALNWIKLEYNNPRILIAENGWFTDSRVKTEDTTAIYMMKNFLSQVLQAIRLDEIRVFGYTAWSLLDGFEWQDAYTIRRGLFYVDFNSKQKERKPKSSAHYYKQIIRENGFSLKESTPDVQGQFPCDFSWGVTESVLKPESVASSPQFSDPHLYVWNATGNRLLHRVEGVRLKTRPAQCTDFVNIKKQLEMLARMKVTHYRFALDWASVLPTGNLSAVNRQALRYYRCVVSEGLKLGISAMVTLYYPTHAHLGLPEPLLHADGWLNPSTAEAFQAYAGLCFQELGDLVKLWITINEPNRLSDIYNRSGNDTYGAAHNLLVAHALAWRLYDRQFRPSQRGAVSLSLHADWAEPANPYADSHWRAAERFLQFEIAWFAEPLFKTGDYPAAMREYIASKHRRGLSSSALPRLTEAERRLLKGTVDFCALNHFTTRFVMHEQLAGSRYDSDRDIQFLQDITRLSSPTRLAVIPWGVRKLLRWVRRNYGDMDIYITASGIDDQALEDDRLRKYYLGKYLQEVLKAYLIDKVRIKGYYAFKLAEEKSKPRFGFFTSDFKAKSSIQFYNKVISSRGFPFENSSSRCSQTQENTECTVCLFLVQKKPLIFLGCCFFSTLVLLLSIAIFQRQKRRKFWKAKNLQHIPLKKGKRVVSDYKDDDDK

T2: human β-klotho, stably co-expressed with the Elk1-luciferase trans-reporter in HEK293 cells (HEK Luc Clone2) (human, UniProt Q86Z14 1-1044)
T2 sequence: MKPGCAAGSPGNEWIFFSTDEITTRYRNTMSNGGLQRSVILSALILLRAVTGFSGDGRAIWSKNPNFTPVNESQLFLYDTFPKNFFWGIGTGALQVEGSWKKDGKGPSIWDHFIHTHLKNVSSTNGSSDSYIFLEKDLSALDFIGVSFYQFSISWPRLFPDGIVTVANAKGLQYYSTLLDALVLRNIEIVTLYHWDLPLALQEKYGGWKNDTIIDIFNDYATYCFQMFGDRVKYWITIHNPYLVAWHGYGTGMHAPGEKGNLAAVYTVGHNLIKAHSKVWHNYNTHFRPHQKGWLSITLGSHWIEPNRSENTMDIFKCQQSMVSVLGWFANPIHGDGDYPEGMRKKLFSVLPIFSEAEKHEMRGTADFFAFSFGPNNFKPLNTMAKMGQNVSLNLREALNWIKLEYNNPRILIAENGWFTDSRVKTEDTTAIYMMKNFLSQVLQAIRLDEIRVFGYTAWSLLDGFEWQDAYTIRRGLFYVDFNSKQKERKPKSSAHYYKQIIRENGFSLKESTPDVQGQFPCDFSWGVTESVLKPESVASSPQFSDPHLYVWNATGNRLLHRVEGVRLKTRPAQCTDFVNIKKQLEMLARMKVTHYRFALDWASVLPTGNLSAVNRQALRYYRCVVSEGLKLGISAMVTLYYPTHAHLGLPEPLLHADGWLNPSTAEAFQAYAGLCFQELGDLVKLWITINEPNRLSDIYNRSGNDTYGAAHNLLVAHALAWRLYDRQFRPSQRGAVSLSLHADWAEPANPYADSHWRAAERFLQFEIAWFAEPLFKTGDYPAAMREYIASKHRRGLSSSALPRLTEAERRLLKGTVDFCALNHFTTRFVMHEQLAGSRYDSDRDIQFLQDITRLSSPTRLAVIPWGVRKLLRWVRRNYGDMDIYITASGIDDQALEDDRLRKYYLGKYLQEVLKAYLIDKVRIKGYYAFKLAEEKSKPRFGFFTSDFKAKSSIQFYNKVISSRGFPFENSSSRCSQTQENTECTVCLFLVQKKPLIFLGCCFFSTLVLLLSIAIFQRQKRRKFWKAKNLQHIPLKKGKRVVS


Legend:
Test in all cases: cell-based or functional assay
[1] = target: T1, human β-klotho with a C-terminal FLAG …
[2] = target: T1, human β-klotho with a C-terminal FLAG …; remark: listed apart in the source
[3] = target: T2, human β-klotho, stably co-expressed …
[4] = target: T2, human β-klotho, stably co-expressed …; remark: listed apart in the source

pERK EC50 [1] [nM]	EC50 in the pERK assay [2] [nM]	EC50 (geometric mean), 5 hour Elk1-luciferase assay [3] [nM]	pEC50, 5 hour Elk1-luciferase assay [3] [log M]	Geometric Mean EC50, Elk1-luciferase assay [4] [nM]	Binder
6.7	14	3.6	8.44	–	Pegylated Compound 1 (ligand) MHPIPDSSPLLQFGGQVRQRYLYTDDAQQTEAHLEIREDGTVGGAADQSPESLLQLKALKPGVIQILGVKTSRFLCQRPDGALYGSLHFDPEACSFRELLLEDGYNVY[Phe(4-Ac)](PEG 30 kDa)SEAHGLPLHLPGNKSPHRDPAPRGPARFLPLPGLPPAPPEPPGILAPQPPDVGSSDPLSMVGPSQGRSPSYAS
–	–	–	–	0.8	Compound 181 [Fc(hIgG1f_1.1_186)-L7-FGF21 (Cmp. 2)] (Fc fusion) EPKSSDKTHTCPPCPAPEAEGAPSVFLFPPKPKDTLMISRTPEVTCVVVDVSHEDPEVKFNWYVDGVEVHNAKTKPREEQYNSTYRVVSVLTVLHQDWLNGKEYKCKVSNKALPSSIEKTISKAKGQPREPQVYTLPPSREEMTKNQVSLTCLVKGFYPSDIAVEWESNGQPENNYKTTPPVLDSDGSFFLYSKLTVDKSRWQQGNVFSCSVMHEALHNHYTQKSLSLSPGKGGGGGSGGGSGGGGSHPIPDSSPLLQFGGQVRQRYLYTDDAQQTEAHLEIREDGTVGGAADQSPESLLQLKALKPGVIQILGVKTSRFLCQRPDGALYGSLHFDPEACSFRELLLEDGYNVYQSEAHGLPLHLGSGRGPARFLPLPGLPPAPPEPPGILAPQPPDVGSSDPLSMVEPSQGRSPSYAS
–	30	–	–	–	Pegylated Compound 21 (ligand) MHPIPDSSPLLQFGGQVRQRYLYTDDAQQTEAHLEIREDGTVGGAADQSPESLLQLKALKPGVIQILGVKTSRFLCQRPDGALYGSLHFDPEACSFRELLLEDGYNVY[Phe(4-Ac)](PEG about 30 kDa)SEAHGLPLHLGSGRDPAPRGPARFLPLPGLPPAPPEPPGILAPQPPDVGSSDPLSMVEPSQGRSPSYAS
–	28	5.4	8.27	5.9	Pegylated Compound 2 (ligand) MHPIPDSSPLLQFGGQVRQRYLYTDDAQQTEAHLEIREDGTVGGAADQSPESLLQLKALKPGVIQILGVKTSRFLCQRPDGALYGSLHFDPEACSFRELLLEDGYNVY[Phe(4-Ac)](PEG about 30 kDa)SEAHGLPLHLGSGRGPARFLPLPGLPPAPPEPPGILAPQPPDVGSSDPLSMVEPSQGRSPSYAS
–	42	–	–	–	Pegylated Compound 20 (ligand) MHPIPDSSPLLQFGGQVRQRYLYTDDAQQTEAHLEIREDGTVGGAADQSPESLLQLKALKPGVIQILGVKTSRFLCQRPDGALYGSLHFDPEACSFRELLLEDGYNVY[Phe(4-Ac)](PEG about 30 kDa)SEAHGLPLHLGGHRDPAPRGPARFLPLPGLPPAPPEPPGILAPQPPDVGSSDPLSMVEPSQGRSPSYAS
–	36	–	–	–	Pegylated Compound 22 (ligand) MHPIPDSSPLLQFGGQVRQRYLYTDDAQQTEAHLEIREDGTVGGAADQSPESLLQLKALKPGVIQILGVKTSRFLCQRPDGALYGSLHFDPEACSFRELLLEDGYNVY[Phe(4-Ac)](PEG 30 kDa)SEAHGLPLHLSGGPAPRGPARFLPLPGLPPAPPEPPGILAPQPPDVGSSDPLSMVEPSQGRSPSYAS
–	8	–	–	–	Compound 32 (Non-Pegylated Control) (ligand) MHHHHHHPIPDSSPLLQFGGQVRQRYLYTDDAQQTEAHLEIREDGTVGGAADQSPESLLQLKALKPGVIQILGVKTSRFLCQRPDGALYGSLHFDPEACSFRELLLEDGYNVYQSEAHGLPLHLPGNKSPHRDPAPRGPARFLPLPGLPPALPEPPGILAPQPPDVGSSDPLSMVGPSQGRSPSYAS
